± gives the uncertainty stated by the source.
Test: self-splicing fitness, log relative to wild type (ln ratio); higher = more splicing; Tetrahymena group I intron in knt gene, E. coli kanamycin selection, DiMSum; sequences stand for … in CUCUCU…GGAGGGAAAAGUUAUCAGGCAUGCACCUGGUAGCUAGUCUUUAAACCAAUAGAUUGCAUCGGUUUAAAAGGCAAGACCGUCAAAUUGCGGGAAAGGGGUCAACAGCCGUUCAGUACCAAGUCUCAGGGGAAACUUUGAGAUGGCCUUGCAAAGGGUAUGGUAAUAAGCUGACGGACAUGGUCCUAACCACGCAGCCAAGUCCUAAGUCAACAGAUCUUCUGUUGAUAUGGAUGCAGUUCACAGACUAAAUGUCGGUCGGGGAAGAUGUAUUCUUCUCAUAAGAUAUAGUCGGACCUCUCCUUAAUGGGAGCUAGCGGAUGAAGUGAUGCAACACUGGAGCCGCUGGGAACUAAUUUGUAUGCGAAAGUAUAUUGAUUAGUUUUGGAGUACUCGUGGUCG
Procedure, shortened: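 The eight P1ex-region nucleotides of an intron in the knt kanamycin-resistance gene on pET-22b(+) were all randomised and the library put into E. coli BL21(DE3). Six replicate transformations were grown overnight at 37°C or 30°C on LB agar with or without 25 μg/mL kanamycin, together with 100 μg/mL carbenicillin, 50 μM IPTG and 0.2% rhamnose. Colonies were pooled and amplicon-sequenced on an Illumina HiSeq 2500. Fitness from DiMSum is the error-weighted combination of wild-type-normalised replicate fold changes, kanamycin over none.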

| Sequence | self-splicing fitness (ln) (30 °C) | self-splicing fitness (ln) (37 °C) |
| --- | --- | --- |
| AUUCAGCAAUAUUACGUGCG | -0.448 ± 0.095 | -0.262 ± 0.13 |
| UAUUAGCAAUAUUACGUAAG | -2.05 ± 0.18 | -1.41 ± 0.25 |
| GAUAAGCAAUAUUACGCUAU | -2.91 ± 0.26 | -1.01 ± 0.29 |
| GAGUAGCAAUAUUACGAGCA | -2.06 ± 0.21 | 0.532 ± 0.14 |
| GCAUAGCAAUAUUACGCGAU | -3.36 ± 0.16 | -1.93 ± 0.14 |
| GCGGAGCAAUAUUACGGGAA | -2.13 ± 0.27 | -2.23 ± 0.35 |
| ACAUAGCAAUAUUACGGCUU | -0.628 ± 0.09 | 0.133 ± 0.11 |
| UCCUAGCAAUAUUACGAUAA | -3.25 ± 0.29 | -1.56 ± 0.17 |
| GUCUAGCAAUAUUACGCUCA | 0.346 ± 0.16 | 0.103 ± 0.19 |
| GAAAAGCAAUAUUACGCUUU | -3.39 ± 0.22 | -2.39 ± 0.26 |
| GCGUAGCAAUAUUACGCGCG | -3.2 ± 0.26 | -2.42 ± 0.31 |
| UUGCAGCAAUAUUACGCACA | -0.577 ± 0.11 | 0.406 ± 0.15 |
| CAUGAGCAAUAUUACGGGCG | -0.135 ± 0.075 | 0.178 ± 0.092 |
| AUGAAGCAAUAUUACGUGCC | -0.735 ± 0.12 | -0.196 ± 0.11 |
| CAAGAGCAAUAUUACGUCGC | -4.54 ± 0.38 | -2.38 ± 0.29 |
| CCAUAGCAAUAUUACGCGGG | -3.99 ± 0.21 | -2.87 ± 0.24 |
| UCUGAGCAAUAUUACGCGUG | -2.36 ± 0.16 | -0.768 ± 0.11 |
| CACCAGCAAUAUUACGAGCG | -0.154 ± 0.066 | 0.288 ± 0.086 |
| GCUCAGCAAUAUUACGAAUA | -1.02 ± 0.066 | -0.439 ± 0.072 |

| Sequence | self-splicing fitness (ln) (30 °C) | self-splicing fitness (ln) (37 °C) |
| --- | --- | --- |
| GCACAGCAAUAUUACGACAU | -0.894 ± 0.011 | -0.217 ± 0.032 |
| ACUUAGCAAUAUUACGUGUA | -2.37 ± 0.11 | -1.43 ± 0.095 |
| ACCGAGCAAUAUUACGAACG | -2.36 ± 0.2 | -0.527 ± 0.22 |
| UAGUAGCAAUAUUACGUGAU | -3.84 ± 0.33 | -2.18 ± 0.28 |
| CUGGAGCAAUAUUACGUUAU | -4.35 ± 0.31 | -2.82 ± 0.26 |
| GCGUAGCAAUAUUACGGCCU | -0.557 ± 0.16 | -0.113 ± 0.25 |
| CAUUAGCAAUAUUACGGGAU | -3.2 ± 0.19 | -2.92 ± 0.23 |
| GUAGAGCAAUAUUACGAGGC | -3.01 ± 0.19 | -2.63 ± 0.29 |
| AGUGAGCAAUAUUACGUCUG | -2.84 ± 0.34 | -2.07 ± 0.38 |
| GGUUAGCAAUAUUACGCGCA | 1.25 ± 0.28 | 0.766 ± 0.34 |
| ACAAAGCAAUAUUACGGUAC | -3.33 ± 0.13 | -2.3 ± 0.15 |
| UCCGAGCAAUAUUACGGGAU | -3.44 ± 0.33 | – |
| UGACAGCAAUAUUACGGGCU | -2.75 ± 0.16 | -1.57 ± 0.097 |
| CCAGAGCAAUAUUACGCUUG | -3.27 ± 0.26 | -2.93 ± 0.35 |
| CCCAAGCAAUAUUACGGCGG | -3.72 ± 0.23 | -2.08 ± 0.21 |
| GCCGAGCAAUAUUACGAGUA | -2.36 ± 0.11 | -1.43 ± 0.086 |
| AAGGAGCAAUAUUACGUCGU | -2.73 ± 0.11 | -0.982 ± 0.12 |
| UCCAAGCAAUAUUACGCUGG | -4.72 ± 0.28 | -1.81 ± 0.18 |
| CUCGAGCAAUAUUACGGCAA | -1.82 ± 0.32 | -2.31 ± 0.27 |
